According to patent US20140086927A1 (FUJITA HEALTH UNIVERSITY, published 2014):

Key:
[1] = biological target: Fuk85HA39-319 (truncated HA on 293T cells) (Influenza A virus H3N2, …, UniProt P12589 39-319); assay: flow cytometry on 293T cells expressing truncated HA
[2] = biological target: Fuk85HA44-309 (truncated HA on 293T cells) (Influenza A virus H3N2, …, UniProt P12589 44-309); assay: as above

B1: F005-126 antibody (IgG) (antibody, V domains shown)
VH: QVQLVQSGAEVKKPGASVTVSCQVSGYTLTSYGLSWVRQAPGQGLEWVGWINTYDGQTKYVKKFQGRVTMTTHTGTNTAYMEMKSLRSDDTAVYYCARVEGVRGVMGFHYYPMDVWGQGTMVTVSS
VL: QSVLTQPPSVSGAPGQRVTISCTGSSSNIGAGYAVHWYQQLPGTAPKLLISGNSNRPSGVPDRFSGSKSGTSASLAITGLQAEDEADYYCQSYDSSLSGSVFGGGTKLTVLG
notes: also called F5126; F05126
binding result [1]: binds
binding result [2]: no binding
